{"source": "patent US20190309087A1", "molecules": {"B1": {"name": "mutated (m)ASSET, fusion protein containing a mutated NlpA motif (scFv, not shown: small tags and cut ends)", "scFv": "EVQLLQSGPELVKPGASVKIPCKASGYTFTDYNMDWVKQSHEKSLEWIGYINPYSGDTIYNHKFKDKATLTVYKSSNIAYMELRSLTSEDTAVYYCARGGYDYGDHWGQGTTLTVSSGSAGGGGSGGGGSGGGGSDIKMTQSPSSMYASLGERVTITCKASQDINSYLSWFQQKPGKSPKTLIYRANRLVDGVPSRFSGSGSGQDYSLTISSLEYEDMGIYYCLQDDEFPRTFGGGTKLEIK"}, "B2": {"name": "ASSET (Anchored Secondary scFv Enabling Targeting) (scFv, part only; not given: mCherry fusion and junctions, part only)", "scFv, part": "CDQSSSEVQLLQSGPELVKPGASVKIPCKASGYTFTDYNMDWVKQSHEKSLEWIGYINPYSGDTIYNHKFKDKATLTVYKSSNIAYMELRSLTSEDTAVYYCARGGYDYGDHWGQGTTLTVSSGSAGGGGSGGGGSGGGGSDIKMTQSPSSMYASLGERVTITCKASQDINSYLSWFQQKPGKSPKTLIYRANRLVDGVPSRFSGSGSGQDYSLTISSLEYEDMGIYYCLQDDEFPRTFGGGTKLEIKHHHHHH", "modifications": "N-terminal cysteine of the CDQSSS NlpA motif is lipid-acylated (bacterial lipidation)"}}, "key": {"[1]": {"biological_target": "recombinant mouse CD34 (Sino Biological) (mouse) (UniProt Q64314)", "sequence (Q64314 35-287 limits assumed)": "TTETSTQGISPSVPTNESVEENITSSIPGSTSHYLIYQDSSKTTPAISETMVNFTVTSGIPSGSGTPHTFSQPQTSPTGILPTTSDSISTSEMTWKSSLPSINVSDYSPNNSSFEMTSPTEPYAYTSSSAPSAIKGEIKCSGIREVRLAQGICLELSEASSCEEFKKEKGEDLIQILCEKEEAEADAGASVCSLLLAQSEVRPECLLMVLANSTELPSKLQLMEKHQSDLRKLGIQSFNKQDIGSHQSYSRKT", "experiment": "ELISA on coated recombinant mouse CD34"}, "[2]": {"biological_target": "recombinant mouse CD34 (Sino Biological) (mouse) (UniProt Q64314)", "experiment": "ELISA on coated recombinant mouse CD34, LNPs pre-incubated with Triton X-100, anti-Rat HRP detection"}, "[3]": {"biological_target": "Rat IgG2a (RIg) immobilized on the Biacore chip (Rattus norvegicus (Rat)) (UniProt P20760)", "sequence (P20760 whole entry)": "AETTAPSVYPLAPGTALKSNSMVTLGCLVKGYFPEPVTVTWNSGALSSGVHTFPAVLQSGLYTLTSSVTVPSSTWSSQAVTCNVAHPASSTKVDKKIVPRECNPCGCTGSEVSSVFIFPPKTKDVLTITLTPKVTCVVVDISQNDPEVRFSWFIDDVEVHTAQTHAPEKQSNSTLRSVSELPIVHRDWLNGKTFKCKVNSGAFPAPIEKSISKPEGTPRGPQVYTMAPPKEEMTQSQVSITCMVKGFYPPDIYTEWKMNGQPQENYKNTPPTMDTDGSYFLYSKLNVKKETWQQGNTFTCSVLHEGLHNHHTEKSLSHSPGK", "experiment": "SPR, Biacore T-200, RIg immobilized on CM5 chip, mASSET 0 to 30 nM"}, "[4]": {"biological_target": "anti-CD34 RIg (clone mec14.7) held by ASSET on TsiLNPs", "experiment": "share of added RIg held on ASSET LNPs, gel quantification after purification"}, "[5]": {"biological_target": "Rat IgG2a (RIg), BioXcell clone FIB504", "experiment": "ELISA, plates coated with 5 µg/ml RIg, ASSET in serial dilutions, anti-His detection"}, "[6]": {"biological_target": "Rat IgG2a (RIg), BioXcell clone FIB504", "experiment": "ELISA on coated RIg of ASSET LNPs after dialysis, LNPs pre-incubated with 0.2% Triton X-100"}}, "data": [{"molecule": "anti-CD34 RIg (clone mec14.7) chemically conjugated to LNPs (ccTsiLNPs) (antibody)", "values": [{"measurement": "fold loss in activity against RIg bound to the LNP by ASSET", "setting": "[1]", "result": 4.5, "unit": "fold"}, {"measurement": "Kd", "setting": "[2]", "result": 1.08, "unit": "nM"}]}, {"molecule": "anti-CD34 RIg (clone mec14.7) held by ASSET on TsiLNPs (antibody)", "values": [{"measurement": "Kd", "setting": "[2]", "result": 0.24, "unit": "nM"}]}, {"molecule": "B1", "values": [{"measurement": "Kd", "setting": "[3]", "result": 22.7, "unit": "nM"}]}, {"molecule": "B2", "values": [{"measurement": "IgG incorporation", "setting": "[4]", "result": 98.3, "unit": "%"}, {"measurement": "Kd", "setting": "[5]", "result": 10, "unit": "nM"}, {"measurement": "functionality maintained after incorporation into LNPs", "setting": "[6]", "result": 95.8, "unit": "%"}]}]}
